The numbers were not newly measured in paper PMC6873222, which cites them from elsewhere.

For orientation: Kd means a measure of binding affinity in units of concentration.

Data set [1] has as its target SIRPG ECD (Homo sapiens) (UniProt Q9P1W8).
Data set [2] concerns the target CD55 ECD (Homo sapiens) (UniProt P08174).

A value given as a limit tells only on which side of the number the result lay.

UniProt Q9P1W8, sequence (Q9P1W8 29-360): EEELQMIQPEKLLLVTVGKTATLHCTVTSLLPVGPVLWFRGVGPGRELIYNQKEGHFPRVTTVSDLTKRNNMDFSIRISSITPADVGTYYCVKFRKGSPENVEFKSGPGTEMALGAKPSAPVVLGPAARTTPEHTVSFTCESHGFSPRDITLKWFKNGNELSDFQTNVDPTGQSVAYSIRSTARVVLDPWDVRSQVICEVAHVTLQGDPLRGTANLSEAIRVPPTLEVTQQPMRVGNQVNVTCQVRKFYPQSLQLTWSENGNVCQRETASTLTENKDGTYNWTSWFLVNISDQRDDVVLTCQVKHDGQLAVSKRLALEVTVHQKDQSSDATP
UniProt P08174, sequence (P08174 35-353): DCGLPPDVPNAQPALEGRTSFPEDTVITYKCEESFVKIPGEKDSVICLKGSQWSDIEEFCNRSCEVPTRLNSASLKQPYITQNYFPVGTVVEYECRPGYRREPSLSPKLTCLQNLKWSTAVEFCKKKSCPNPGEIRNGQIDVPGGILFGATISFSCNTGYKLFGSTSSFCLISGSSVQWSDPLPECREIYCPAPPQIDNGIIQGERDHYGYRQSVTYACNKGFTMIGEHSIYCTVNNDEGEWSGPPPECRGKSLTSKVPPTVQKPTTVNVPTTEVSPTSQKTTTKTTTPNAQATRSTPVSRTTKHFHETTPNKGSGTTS

Take CD47 ECD (from UniProt Q08722): the equilibrium dissociation constant (Kd) in data set [1] is 23 µM.
In the case of CD97 ECD (from UniProt P48960), the dissociation constant (Kd) in data set [2] is more than 80 µM.
